Measurements: patent publication US20120114557A1

How the values were obtained:
[1] = molecular target: rat collagen type I (rat) (UniProt P02454); assay: dried collagen assay, chelate conjugate
[2] = molecular target: human collagen type I (human) (UniProt P02452); assay: dried collagen assay, chelate conjugate
Chain of human collagen type I (human) (P02452 162-1218 limits assumed, chain 1 of 2): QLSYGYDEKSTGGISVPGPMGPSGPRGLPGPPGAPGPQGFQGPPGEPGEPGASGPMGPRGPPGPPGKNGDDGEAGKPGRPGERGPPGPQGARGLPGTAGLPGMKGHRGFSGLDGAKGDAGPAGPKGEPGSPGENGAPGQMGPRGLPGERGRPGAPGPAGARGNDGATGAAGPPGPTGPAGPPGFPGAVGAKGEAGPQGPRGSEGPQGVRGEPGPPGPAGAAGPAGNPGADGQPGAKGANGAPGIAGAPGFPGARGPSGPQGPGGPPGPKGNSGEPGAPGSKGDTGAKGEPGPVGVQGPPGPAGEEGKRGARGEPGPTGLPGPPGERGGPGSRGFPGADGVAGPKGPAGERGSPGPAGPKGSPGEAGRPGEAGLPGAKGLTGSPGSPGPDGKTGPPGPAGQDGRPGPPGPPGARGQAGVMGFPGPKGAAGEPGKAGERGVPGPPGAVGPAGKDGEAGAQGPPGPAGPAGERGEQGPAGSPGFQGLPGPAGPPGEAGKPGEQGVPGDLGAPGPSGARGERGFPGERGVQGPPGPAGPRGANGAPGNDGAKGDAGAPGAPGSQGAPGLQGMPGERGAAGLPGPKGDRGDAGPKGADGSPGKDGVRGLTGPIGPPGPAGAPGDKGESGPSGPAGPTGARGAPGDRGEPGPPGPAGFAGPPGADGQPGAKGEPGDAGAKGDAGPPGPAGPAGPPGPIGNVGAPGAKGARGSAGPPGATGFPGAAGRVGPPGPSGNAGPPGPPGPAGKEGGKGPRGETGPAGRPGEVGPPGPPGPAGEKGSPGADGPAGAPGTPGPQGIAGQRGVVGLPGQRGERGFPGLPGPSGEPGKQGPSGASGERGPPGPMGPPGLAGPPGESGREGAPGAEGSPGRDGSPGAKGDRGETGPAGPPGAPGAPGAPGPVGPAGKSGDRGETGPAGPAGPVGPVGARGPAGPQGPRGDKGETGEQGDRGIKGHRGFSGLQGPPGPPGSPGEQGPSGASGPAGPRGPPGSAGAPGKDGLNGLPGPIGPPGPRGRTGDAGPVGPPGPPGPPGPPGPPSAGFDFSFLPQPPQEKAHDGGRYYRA
Chain of human collagen type I (human) (P08123 80-1119 limits assumed, chain 2 of 2, further chain): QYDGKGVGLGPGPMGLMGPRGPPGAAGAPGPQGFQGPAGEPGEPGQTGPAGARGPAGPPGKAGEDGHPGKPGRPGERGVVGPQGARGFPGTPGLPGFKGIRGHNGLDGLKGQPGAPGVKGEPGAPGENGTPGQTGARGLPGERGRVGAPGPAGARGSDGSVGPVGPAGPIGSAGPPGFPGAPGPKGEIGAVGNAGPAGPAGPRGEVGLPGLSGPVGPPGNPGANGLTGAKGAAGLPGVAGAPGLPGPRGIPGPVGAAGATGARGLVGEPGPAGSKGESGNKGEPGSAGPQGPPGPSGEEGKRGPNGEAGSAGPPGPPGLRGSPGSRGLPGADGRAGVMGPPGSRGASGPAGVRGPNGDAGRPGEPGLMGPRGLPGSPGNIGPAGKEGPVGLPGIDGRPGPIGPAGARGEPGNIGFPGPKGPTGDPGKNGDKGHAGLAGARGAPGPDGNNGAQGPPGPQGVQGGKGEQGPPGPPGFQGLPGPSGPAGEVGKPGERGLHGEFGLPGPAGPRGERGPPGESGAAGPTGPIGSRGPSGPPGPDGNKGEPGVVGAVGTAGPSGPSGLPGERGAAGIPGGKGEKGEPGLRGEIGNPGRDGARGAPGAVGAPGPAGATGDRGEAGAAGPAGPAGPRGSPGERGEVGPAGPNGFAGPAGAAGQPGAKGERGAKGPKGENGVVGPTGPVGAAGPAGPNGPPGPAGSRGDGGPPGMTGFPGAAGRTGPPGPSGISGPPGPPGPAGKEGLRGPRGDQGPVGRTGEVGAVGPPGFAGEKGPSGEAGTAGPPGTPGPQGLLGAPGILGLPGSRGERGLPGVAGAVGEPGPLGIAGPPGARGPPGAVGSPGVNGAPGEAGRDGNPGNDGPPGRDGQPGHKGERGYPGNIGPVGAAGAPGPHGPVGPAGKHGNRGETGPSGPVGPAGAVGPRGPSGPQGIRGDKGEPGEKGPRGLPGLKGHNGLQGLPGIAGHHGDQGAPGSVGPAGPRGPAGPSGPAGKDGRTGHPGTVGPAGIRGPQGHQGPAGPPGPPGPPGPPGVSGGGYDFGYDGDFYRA

Chain of rat collagen type I (rat) (P02454 152-1207, chain 1 of 2): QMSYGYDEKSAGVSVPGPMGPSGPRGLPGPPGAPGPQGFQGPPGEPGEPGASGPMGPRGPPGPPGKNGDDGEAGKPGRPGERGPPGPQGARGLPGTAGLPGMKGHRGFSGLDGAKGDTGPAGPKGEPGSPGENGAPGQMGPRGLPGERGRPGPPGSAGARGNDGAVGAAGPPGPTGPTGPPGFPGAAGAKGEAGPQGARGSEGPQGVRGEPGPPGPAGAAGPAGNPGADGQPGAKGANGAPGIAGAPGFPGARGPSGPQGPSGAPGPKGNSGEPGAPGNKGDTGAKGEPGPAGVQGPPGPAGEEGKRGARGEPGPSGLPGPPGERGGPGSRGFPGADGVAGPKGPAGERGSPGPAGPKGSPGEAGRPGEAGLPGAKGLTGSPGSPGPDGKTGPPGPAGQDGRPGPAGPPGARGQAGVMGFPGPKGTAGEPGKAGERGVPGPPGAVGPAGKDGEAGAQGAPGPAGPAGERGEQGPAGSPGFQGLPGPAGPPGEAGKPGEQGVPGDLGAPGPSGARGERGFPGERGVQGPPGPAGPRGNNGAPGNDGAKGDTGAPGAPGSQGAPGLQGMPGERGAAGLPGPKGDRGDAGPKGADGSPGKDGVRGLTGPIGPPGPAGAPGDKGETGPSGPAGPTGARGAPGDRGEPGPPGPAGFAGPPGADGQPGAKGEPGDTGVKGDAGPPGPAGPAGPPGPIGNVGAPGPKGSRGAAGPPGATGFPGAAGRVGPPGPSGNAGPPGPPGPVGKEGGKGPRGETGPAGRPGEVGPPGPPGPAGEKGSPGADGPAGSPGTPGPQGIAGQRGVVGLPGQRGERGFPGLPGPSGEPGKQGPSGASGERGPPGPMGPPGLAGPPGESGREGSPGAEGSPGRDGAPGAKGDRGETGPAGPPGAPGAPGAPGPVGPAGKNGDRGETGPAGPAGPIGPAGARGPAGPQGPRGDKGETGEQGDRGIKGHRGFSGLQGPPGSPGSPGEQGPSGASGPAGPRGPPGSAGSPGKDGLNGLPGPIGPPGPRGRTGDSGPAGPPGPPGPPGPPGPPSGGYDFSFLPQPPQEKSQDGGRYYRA
Chain of rat collagen type I (rat) (P02466 86-1125, chain 2 of 2, further chain): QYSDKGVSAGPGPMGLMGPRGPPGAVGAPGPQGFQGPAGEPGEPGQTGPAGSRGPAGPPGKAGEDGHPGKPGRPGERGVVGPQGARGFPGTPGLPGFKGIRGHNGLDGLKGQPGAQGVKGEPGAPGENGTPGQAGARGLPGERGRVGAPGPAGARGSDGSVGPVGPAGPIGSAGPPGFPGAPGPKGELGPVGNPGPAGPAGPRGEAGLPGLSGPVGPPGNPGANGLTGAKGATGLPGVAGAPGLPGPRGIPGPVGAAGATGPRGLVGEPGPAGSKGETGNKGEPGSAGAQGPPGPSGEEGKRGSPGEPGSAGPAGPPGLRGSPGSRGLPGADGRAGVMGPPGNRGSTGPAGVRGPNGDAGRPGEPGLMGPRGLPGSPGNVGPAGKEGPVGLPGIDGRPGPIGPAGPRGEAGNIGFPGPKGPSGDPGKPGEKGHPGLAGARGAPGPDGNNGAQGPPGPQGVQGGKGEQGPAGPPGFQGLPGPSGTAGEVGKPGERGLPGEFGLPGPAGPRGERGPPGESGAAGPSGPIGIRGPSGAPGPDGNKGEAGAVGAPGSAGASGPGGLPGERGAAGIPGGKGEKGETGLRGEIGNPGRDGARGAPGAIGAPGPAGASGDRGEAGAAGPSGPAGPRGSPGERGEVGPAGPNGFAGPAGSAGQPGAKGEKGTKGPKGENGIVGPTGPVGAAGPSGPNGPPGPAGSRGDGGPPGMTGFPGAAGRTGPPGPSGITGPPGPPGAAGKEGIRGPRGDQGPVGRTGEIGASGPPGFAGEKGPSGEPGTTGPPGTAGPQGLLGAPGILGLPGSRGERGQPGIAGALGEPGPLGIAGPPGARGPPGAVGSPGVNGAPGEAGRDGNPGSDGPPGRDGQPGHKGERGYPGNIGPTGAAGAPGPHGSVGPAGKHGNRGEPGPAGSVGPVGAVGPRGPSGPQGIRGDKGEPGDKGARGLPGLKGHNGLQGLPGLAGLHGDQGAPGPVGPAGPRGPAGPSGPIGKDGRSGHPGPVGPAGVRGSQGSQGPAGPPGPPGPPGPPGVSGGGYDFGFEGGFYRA

Glu-DTPA-Gd-PEG(20)-G-Q-W-T-C-S-G-D-E-Y-T-W-H-C-N-Y-e (peptide)
% Binding Collagen I, Rat [1]: 5% | % Binding Collagen I, Human [2]: 28%
